Reference: US20230406951A1 (Pfizer, published 2023)

T1: human TNFR2 (human, UniProt P20333 23-461)
T1 construct: expressed on the surface of CHO cells; also called HuTNFR2; TNFRSF1B
T1 sequence: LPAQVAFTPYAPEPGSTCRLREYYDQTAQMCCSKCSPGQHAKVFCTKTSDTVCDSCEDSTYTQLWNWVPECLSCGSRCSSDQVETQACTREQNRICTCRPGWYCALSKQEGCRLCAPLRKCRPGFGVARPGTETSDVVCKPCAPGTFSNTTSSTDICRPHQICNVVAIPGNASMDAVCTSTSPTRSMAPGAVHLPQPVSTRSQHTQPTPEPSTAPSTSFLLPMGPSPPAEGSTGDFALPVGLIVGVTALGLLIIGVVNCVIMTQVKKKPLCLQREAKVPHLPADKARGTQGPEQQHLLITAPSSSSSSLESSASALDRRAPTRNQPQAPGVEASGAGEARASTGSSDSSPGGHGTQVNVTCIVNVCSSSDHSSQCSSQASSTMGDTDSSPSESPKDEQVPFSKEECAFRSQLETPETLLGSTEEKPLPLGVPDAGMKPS


Biological target: T1, human TNFR2
Experiment: binding to human TNFR2 CHO cells

binding result | Binder
no binding | TetraFab 2069 (antibody, TetraFab) heavy: QVQLVQSGAEVKKPGASVKVSCKVSGFSFPSSGVDWVRQAPGQGLEWLGVTRGEGSTHYNQKFQGRVTITKDTSKSTVYMELSSLRSEDTAVYYCASGERDEGFVYWGQGTLVTVSSASTKGPSVFPLAPSSKSTSGGTAALGCLVKDYFPEPVTVSWNSGALTSGVHTFPAVLQSSGLYSLSSVVTVPSSSLGTQTYICNVNHKPSNTKVDKKVEPKSCGGGGSQVQLVQSGAEVKKPGASVKVSCKVSGFSFPSSGVDWVRQAPGQGLEWLGVTRGEGSTHYNQKFQGRVTITKDTSKSTVYMELSSLRSEDTAVYYCASGERDEGFVYWGQGTLVTVSSASTKGPSVFPLAPSSKSTSGGTAALGCLVKDYFPEPVTVSWNSGALTSGVHTFPAVLQSSGLYSLSSVVTVPSSSLGTQTYICNVNHKPSNTKVDKKVEPKSCDKTHTCPPCPAPEAAGAPSVFLFPPKPKDTLMISRTPEVTCVVVDVSHEDPEVKFNWYVDGVEVHNAKTKPREEQYNSTYRVVSVLTVLHQDWLNGKEYKCKVSNKALPAPIEKTISKAKGQPREPQVYTLPPSREEMTKNQVSLTCLVKGFYPSDIAVEWESNGQPENNYKTTPPVLDSDGSFFLYSKLTVDKSRWQQGNVFSCSVMHEALHNHYTQKSLSLSPGK light: DIQLTQSPSFLSASVGDRVTITCKASQNVGTAVAWYQQKPGKAPKLLIYAASTLQSGVPSRFSGSGSGTEFTLTISSLQPEDFATYYCQQYSSYPLTFGGGTKVEIKRTVAAPSVFIFPPSDEQLKSGTASVVCLLNNFYPREAKVQWKVDNALQSGNSQESVTEQDSKDSTYSLSSTLTLSKADYEKHKVYACEVTHQGLSSPVTKSFNRGEC
no binding | TetraFab 2075 (antibody, TetraFab) heavy: QVQLVQSGAEVKKPGASVKVSCKVSGFSFPSSGVDWVRQAPGQGLEWLGVTLGHGSTHYNQKFQGRVTITKDTSKSTVYMELSSLRSEDTAVYYCASGESTEGFVYWGQGTLVTVSSASTKGPSVFPLAPSSKSTSGGTAALGCLVKDYFPEPVTVSWNSGALTSGVHTFPAVLQSSGLYSLSSVVTVPSSSLGTQTYICNVNHKPSNTKVDKKVEPKSCGGGGSQVQLVQSGAEVKKPGASVKVSCKVSGFSFPSSGVDWVRQAPGQGLEWLGVTLGHGSTHYNQKFQGRVTITKDTSKSTVYMELSSLRSEDTAVYYCASGESTEGFVYWGQGTLVTVSSASTKGPSVFPLAPSSKSTSGGTAALGCLVKDYFPEPVTVSWNSGALTSGVHTFPAVLQSSGLYSLSSVVTVPSSSLGTQTYICNVNHKPSNTKVDKKVEPKSCDKTHTCPPCPAPEAAGAPSVFLFPPKPKDTLMISRTPEVTCVVVDVSHEDPEVKFNWYVDGVEVHNAKTKPREEQYNSTYRVVSVLTVLHQDWLNGKEYKCKVSNKALPAPIEKTISKAKGQPREPQVYTLPPSREEMTKNQVSLTCLVKGFYPSDIAVEWESNGQPENNYKTTPPVLDSDGSFFLYSKLTVDKSRWQQGNVFSCSVMHEALHNHYTQKSLSLSPGK light: DIQLTQSPSFLSASVGDRVTITCKASQNVGTAVAWYQQKPGKAPKLLIYAASTLQSGVPSRFSGSGSGTEFTLTISSLQPEDFATYYCQQYSSYPLTFGGGTKVEIKRTVAAPSVFIFPPSDEQLKSGTASVVCLLNNFYPREAKVQWKVDNALQSGNSQESVTEQDSKDSTYSLSSTLTLSKADYEKHKVYACEVTHQGLSSPVTKSFNRGEC
